The sequences below were run on K4 kissing-loop RNA reporter (assay: apparent KD of K4 kissing-loop reporter; higher = weaker reporter binding). Settings: Eterna round: R107; input ligand: arginine 13.2 mM.
Description: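 RNA-MaP round R107: designed RNA switches with theophylline, tryptophan, arginine or FMN aptamers are transcribed on-chip within common flanks. They are titrated with a labelled K4 kissing-loop RNA reporter in RNA-MaP buffer (100 mM Tris pH 7.5, 80 mM KCl, 4 mM MgCl2), without ligand or with the indicated ligand. Median apparent KD per design.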
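Note: bound reporter read as fluorescence of individual clusters on recovered sequencing chips by microscopy, with normalized cluster intensities fitted with a binding model.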

Row | Sequence | apparent KD of K4 kissing-loop reporter [nM]
1 | AGAAACUUGUAUGUCGAGUGUGCGCGCGAUACCAGCCAAAUGGAUGGCCCUUGGCAGCGCUGCGAGUGAUGUUCGCCCGCUUGAC [#18 K4 Theophylline A Exclusion] | 244
2 | GUUACGCAUGGAAGGAGCGCGAUAAUAUUAAGUGAGUGAUGUUCACAAAGAAAAUAAAUAACGCAGGUAGGUCGCCAUGUGUAAC [Ex Arginine B K4 4] | 93.1
3 | ACGUAGUUCUAGGAUACCAGCCAAGGUGCCAGGACAAAAGUCCUGGCAGUCAGUGAUGUUGGCCCUUGGCAGCCUAGAACUACGA [Omei KL Theo B Exc B v8] | 196
4 | AAGCAGUCACUCGAAGCCAUCGAAGAUGGACGAGGACCGGUACGGCCGCCACUCGGAGUGAUGUUCCGAAGACUGCAAAAUAAAA | 274
5 | CCAUCGCUAUUCGAUACCAGUCAUCAAAUCUUUGGUUUGAUAAAGGAGUGAUGUUCCCAAGACCCUUGGCAGCGAAUAGUGAUGG [Theophylline B K4 10] | 212
6 | CAUAGACAAGUGAUGUUUGUCAUAACCGAAGGAGCGUCUUUAAAGACAGGUAGGUCGCGGAUUAAUUAAGUUAUGAUUCUUUUUA [JR_SSArginiA_Sub017] | 572
7 | UGAUAGGACAGAAGGAGCGGAGGUCGUCAAAGACGACCAAUAACGUUGAUAGGAGUGAUGUUCCAGGUAGGUCGCUGUCCUAUCU [ArgBX 29 #SwitchBubble #StaticStem] | 127
8 | AGACUACCACACUGUCAAUAGACAGUGAGCUAGGAUAUGCUGAUAAGCAGAAGGAGUGAUGUUCCUUGGUAGUCAAUAAAAUAAU [FmnAX 13 G29+U67] | 271
9 | UCCUGCAAUGGACCACGAAAGUGGAUCGAUACCAGAGUCGAAAGACUCCCUUGGCAGCGAGUGAUGUUCGAAGCAGGUAAAUAAA [#SwitchBubble 21 #K4Late] | 483
10 | ACGUGCACCAGUGAUGUUGGAAAAUAUGAAGGAGCGUGCGAAAGCACAGGUAGGUCGCAUAAUAGCACGAGCCACGAAAGUGGCA [#SwitchBubble 6 #K4Early #Sliding] | 159
11 | GGCCGGAAGGCGGCCGCCACUCAGUGAUGUUGUGUGAAAGAAAAGAAAAGAAGAAAGAAAAGAAAGAGGACCGGGCCAAACGGCC | 224
12 | UACAAACGUAGUGAUGUUACGUACUCUGAUACCAGACAACUCUAAGUCCCUUGGCAGCAGUCAUUUUGCUUAUUAUUUUCUCAAA [JR_ExcTheophyA_Sub018] | 102
13 | CGAGUGAUGUUCGAAGAGUUGUUAAGCGAUACCAGCUAGGAAACUGGCCCUUGGCAGCGUAAUAAGUAAAUAAAUAAAUGAUCAC [whbob_Ex_Theo_A_th63] | 399
14 | UAAUAAAUUCCAGCGAUAUCGCUCUUCGAAGGAGCGGACGAAAGUCCAGGUAGGUCGCGAAGAGUGAUGUUCUUUGCGGCGCUGG [Omei KL Arginine A Exc A v4] | 180
15 | UUAAUUCCGGUGGUGUGUAGAACACAGUUACGAGGACCGGUACGGCCGCCACUCGGAUGCACUUUCAGUGAUGUUGAAAGCAUCA [Same State Tryptophan A GF 1] | 514
16 | UGACUGGACUGAAGGAGCGCUAAACUCCUAGUGAUGUUAGGAUAACGAGACAAAGUCUCGAAGCAGGUAGGUCGCAGUCUAGUCU | 110
17 | UUAGAGAUCUCAGGAUAUCAGUGAUGUUGGUGUGCAGAUCUGAGAUAGAAUUCUAUCUCAGAUCAAUGAGAAGGGAGAUCUCAUU [AK5 Exc FMN B] | 149

Row | Sequence | apparent KD of K4 kissing-loop reporter [nM]
18 | AAGUAGCUCUCGGCCGCCACUCCUCAGUGAUGUUGAGAUAUUAACUGCCAAUUGGCGUAUUUAAAGAGGACCGGGAGAGCUACAA [AK2 SS Tryptophan B] | 389
19 | UAAUUUAUGUCUUUAAUAUAAUAAUCAGAUACCAGUGAUUUAUGACACCCUUGGCAGCUGUAUAGAGUGAUGUUCUUAUGCUUAA [JR_ExcTheophyA_Sub011] | 324
20 | GUUGAUCAUGGAAGGAGCGCCCAUUGUCGACACGAGUGAUGUUCGUGUCGUUGAUUACGAGGGCAGGUAGGUCGCCGUGUGCUUU [Rabele] | 109
21 | GGCACUUUUGCUUGGAACCGUCAAGCUCUAUAGGAUAUGCCGAAAGGCAGAAGGAUGGACCUACAGAGUGAUGUUCUGCGUGCCU | 140
22 | GAGAUAGAGGCGGCCGCCACUAGUGAUGUUAGUGAUGUUAGAUAGAGAAUAGAACAGAGGUAGGAUAGGACCGGGCCAGAUAGAG [whbob_SS_Tryp_B_w31] | 65.3
23 | AGGCACGAGCAAGGAUAUCGAGUAGAGUGAUGUUCUGCCUGGGUUGGCGCGGAAGGGCCUUCCCAGCGAGAAGGUGCUCGUGCCU [#2 Same State - FMN A Attempt #10 (HarryS)] | 569
24 | AUGUUGAGCGGAAGGAGCGGCUGAGCCAGUGAUGUUGGUUAAUCCAAGUGAUGUUGGAAAAGCCAGGUAGGUCGCCGCUUUACGU [whbob_SS_Arginine_B_2t144] | 741
25 | CGACACUCAGCGGCCGCCACUGAGCUAUAUUUUGCAGGUGCCCGAGUAAGUGAUGUUUACUUCGUCAGGACCGGGCUGGUUUCAA [theeternabot_sameState_KL_Trp_B_20] | 298
26 | GCCGUAGAUUGAAGGAGCGUGGAACUAUGGCUUGAACAGUGAUGUUGUUUAUCUAGGUAGCCACAGGUAGGUCGCAAUCUACGGC | 201
27 | UGACUGGAUGGAAGGAGCGCUAAACUCCUAGUGAUGUUAGGGACACGAGACAAAGUCUUGAGGCAGGUAGGUCGCCAUCUAGUCU [FiskerMod 8 - Jieux - Same State - Arginine B] | 211
28 | UCGAGUUGACGAAGAGUCAACUCGUGUGAUACCAGUGACGAAAGUCACCCUUGGCAGCACUAUGCUAGUGAUGUUGGUAUUUAAG [#08 K4 Theophylline A Same State] | 92.7
29 | AGAUUCGACACGGCCGCCACUCGUGGUGGAUUACCGAGUGUCGAAGUUGAGUGAUGUUCAAGUACGAGGACCGGGUGUUGAGUCU [KL-XTryp-B9 #analogue] | 204
30 | AGGCACGAGCAAGGAUAUUGAGUAGAGUGAUGUUCUGCCUGGGUUGGCUCGCAAGAGCCUUCUCAGCGAGAAGGUGCUCGUGCCU [#2 Same State - FMN A Attempt #25 (HarryS)] | 471
31 | UGUCGGUGAAGAAUGUUAGUGAUGUUGGCACGAGGACCGGUACGGCCGCCACUCGGUAAUCAUCGCAAUUAUCGAUGGCGUAGCC [theeternabot_exclusion_KL_Trp_A_3] | 170
32 | AUUAAUUUCAGAGGAUAUCGUGAUUUUAUUUAAUUUAUUCAUUUGUGCAGUGAUGUUGCUAAUAUUCGAGAAGGCUGAUUUAUAA [whbob_Ex_FMNB__2th224] | 109
33 | AUAACAAUCUGAAGGAGCGAGAAAGCAGUGAUGUUGCAAAGGCGAGUGAUGUUCGCAAUAACUCAGGUAGGUCGCAGAAACAAGA [Same State Arginine B] | 142

Same assay, conditions: Eterna round: R107; input ligand: none

Row | Sequence | apparent KD of K4 kissing-loop reporter [nM]
34 | CCAUCGCUAUUCGAUACCAGUCAAAAUAAAAUAAUAAAUCUGCAAAGGAGUGAUGUUCCAGACCCUUGGCAGCGAAUAGUGAUGG [Theophylline B K4 2] | 834
35 | GAGAUAGCGACGGCCGCCACUAGUGAUGUUAGUGCUGGUAGAUAGAUACUGGAACAGAAAUGACGUAGGACCGGGUCAGAUAGAG [#01 K4 Tryptophan B Exclusion] | 292
36 | CCGCCAUCGUCAGAUACCAGGCUGAUGGCGGUAACCGCCAAGCGAGUGAUGUUCGCAUCAGUCCCUUGGCAGCUGACGAAGACUG [#16 K4 Theophylline B Same State] | 190
37 | UAAUUUAUCGCAGGAUAUAGCCAUAAACCGGUCCUAAGGGACCUUCUGGGCAGUGAUGUUGCCCGGCUAGAAGGGCGAGUUCACC [Anenlagema] | 116
38 | ACUUGAGCACAAAGCACACCAAGCAGUAGGUAGGAUAUCCGGCUUAGGAGAAGGACCAUGCAGUGAUGUUGCAUGCUCCUCCAUG [Onraordi] | 101
39 | UGACAUUGCUCAGAUACCAGACAAGAGGAUCACCCUUGUGCCAAACGUACAAUAAUAAUUGUCCCUUGGCAGCUGAGCAAUGUCU [TheoBX 14] | 16.3
40 | UUAUCAUCAGCGGCCGCCACUGCAAAUUGGAGUGAUGUUCCAAGCGUGGAUAUUGAAAUUACUAGUAGGACCGGGUUGAUGAAUU [AK 2 Ex Trypt B] | 158
41 | CUUAAGAUAUGAGUGAUGUUUAUGUCCGAAGGAGCGUGCGAAAGUACAGGUAGGUCGCGGAUGUGAGUGAUGUUCAUGUAAGCGA [KL-XArg-A13 #analogue] | 114
42 | UGAUAGGACAGAAGGAGCGGAAGUGAUGUUUCCAAAAGAUAUGGUCGACAAAGUCGACUUUUCCAGGUAGGUCGCUGUCCUAUCU [KL-XARG-B18] | 67.1
43 | GGUGAUGAGCACGAUACCAGCCUCGGAGCCAGUGAUGUUGGCCCAAUUUAAAAUAAGAUAGGCCCUUGGCAGCGUGACGAUGGCU [Rainle] | 711
44 | AGAAACUUGUAUGUCGAGUGUGCGCGCGAUACCAGCCAAAUGGAUGGCCCUUGGCAGCGCUGCGAGUGAUGUUCGCCCGCUUGAC [#18 K4 Theophylline A Exclusion] | 203
45 | GUUACGCAUGGAAGGAGCGCGAUAAUAUUAAGUGAGUGAUGUUCACAAAGAAAAUAAAUAACGCAGGUAGGUCGCCAUGUGUAAC [Ex Arginine B K4 4] | 80.8
46 | ACGUAGUUCUAGGAUACCAGCCAAGGUGCCAGGACAAAAGUCCUGGCAGUCAGUGAUGUUGGCCCUUGGCAGCCUAGAACUACGA [Omei KL Theo B Exc B v8] | 215
47 | AAGCAGUCACUCGAAGCCAUCGAAGAUGGACGAGGACCGGUACGGCCGCCACUCGGAGUGAUGUUCCGAAGACUGCAAAAUAAAA | 296
48 | CCAUCGCUAUUCGAUACCAGUCAUCAAAUCUUUGGUUUGAUAAAGGAGUGAUGUUCCCAAGACCCUUGGCAGCGAAUAGUGAUGG [Theophylline B K4 10] | 224
49 | CAUAGACAAGUGAUGUUUGUCAUAACCGAAGGAGCGUCUUUAAAGACAGGUAGGUCGCGGAUUAAUUAAGUUAUGAUUCUUUUUA [JR_SSArginiA_Sub017] | 661
50 | UGAUAGGACAGAAGGAGCGGAGGUCGUCAAAGACGACCAAUAACGUUGAUAGGAGUGAUGUUCCAGGUAGGUCGCUGUCCUAUCU [ArgBX 29 #SwitchBubble #StaticStem] | 121
51 | AGACUACCACACUGUCAAUAGACAGUGAGCUAGGAUAUGCUGAUAAGCAGAAGGAGUGAUGUUCCUUGGUAGUCAAUAAAAUAAU [FmnAX 13 G29+U67] | 285
52 | UCCUGCAAUGGACCACGAAAGUGGAUCGAUACCAGAGUCGAAAGACUCCCUUGGCAGCGAGUGAUGUUCGAAGCAGGUAAAUAAA [#SwitchBubble 21 #K4Late] | 478
53 | ACGUGCACCAGUGAUGUUGGAAAAUAUGAAGGAGCGUGCGAAAGCACAGGUAGGUCGCAUAAUAGCACGAGCCACGAAAGUGGCA [#SwitchBubble 6 #K4Early #Sliding] | 134
54 | GGCCGGAAGGCGGCCGCCACUCAGUGAUGUUGUGUGAAAGAAAAGAAAAGAAGAAAGAAAAGAAAGAGGACCGGGCCAAACGGCC | 504
